Experimental data reported in publication PMC7060200, “Selective Binding of HSC70 and its Co-Chaperones to Structural Hotspots on CFTR” (Scientific Reports, 2020).

Key:
[1] = biological target: HSC70 (HSPA8), His-tagged (UniProt P11142); assay: ELISA; competition: 1 μM chaperone mixed with soluble peptide (titrated up to 100 μM, or fixed 100 μM in the screens) and bound to immobilised 1097-L; Kd of the competing peptide from linearised competition curves
[2] = biological target: DNAJA1 (DJA1), His-tagged (UniProt P31689); assay: as above
[3] = biological target: DNAJA2 (DJA2), His-tagged (UniProt O60884); assay: as above
DNAJA2 (DJA2), His-tagged (UniProt O60884), sequence (O60884 whole entry): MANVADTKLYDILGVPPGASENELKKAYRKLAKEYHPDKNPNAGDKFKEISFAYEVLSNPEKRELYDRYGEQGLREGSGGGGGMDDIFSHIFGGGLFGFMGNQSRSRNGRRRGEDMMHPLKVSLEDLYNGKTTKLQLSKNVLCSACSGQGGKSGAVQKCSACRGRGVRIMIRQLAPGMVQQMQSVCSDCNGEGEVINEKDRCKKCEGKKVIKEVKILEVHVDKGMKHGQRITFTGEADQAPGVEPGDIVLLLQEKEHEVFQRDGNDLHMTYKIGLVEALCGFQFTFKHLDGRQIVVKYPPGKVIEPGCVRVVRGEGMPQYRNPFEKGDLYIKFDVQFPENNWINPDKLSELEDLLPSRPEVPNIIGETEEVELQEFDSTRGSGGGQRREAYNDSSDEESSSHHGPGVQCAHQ

[4] = biological target: Fluorescent peptide FAM-1092-S (UniProt P13569); assay: other fluorescence titration; 0.5 μM FAM-1092-S with varying concentrations of chaperone, 45 min; HSC70 in buffer G, DJA1 and DJA2 in buffer H; excitation 492 nm, emission 520 nm; one site total binding fit
Fluorescent peptide FAM-1092-S, sequence (P13569 whole entry, looked up, tested part not stated): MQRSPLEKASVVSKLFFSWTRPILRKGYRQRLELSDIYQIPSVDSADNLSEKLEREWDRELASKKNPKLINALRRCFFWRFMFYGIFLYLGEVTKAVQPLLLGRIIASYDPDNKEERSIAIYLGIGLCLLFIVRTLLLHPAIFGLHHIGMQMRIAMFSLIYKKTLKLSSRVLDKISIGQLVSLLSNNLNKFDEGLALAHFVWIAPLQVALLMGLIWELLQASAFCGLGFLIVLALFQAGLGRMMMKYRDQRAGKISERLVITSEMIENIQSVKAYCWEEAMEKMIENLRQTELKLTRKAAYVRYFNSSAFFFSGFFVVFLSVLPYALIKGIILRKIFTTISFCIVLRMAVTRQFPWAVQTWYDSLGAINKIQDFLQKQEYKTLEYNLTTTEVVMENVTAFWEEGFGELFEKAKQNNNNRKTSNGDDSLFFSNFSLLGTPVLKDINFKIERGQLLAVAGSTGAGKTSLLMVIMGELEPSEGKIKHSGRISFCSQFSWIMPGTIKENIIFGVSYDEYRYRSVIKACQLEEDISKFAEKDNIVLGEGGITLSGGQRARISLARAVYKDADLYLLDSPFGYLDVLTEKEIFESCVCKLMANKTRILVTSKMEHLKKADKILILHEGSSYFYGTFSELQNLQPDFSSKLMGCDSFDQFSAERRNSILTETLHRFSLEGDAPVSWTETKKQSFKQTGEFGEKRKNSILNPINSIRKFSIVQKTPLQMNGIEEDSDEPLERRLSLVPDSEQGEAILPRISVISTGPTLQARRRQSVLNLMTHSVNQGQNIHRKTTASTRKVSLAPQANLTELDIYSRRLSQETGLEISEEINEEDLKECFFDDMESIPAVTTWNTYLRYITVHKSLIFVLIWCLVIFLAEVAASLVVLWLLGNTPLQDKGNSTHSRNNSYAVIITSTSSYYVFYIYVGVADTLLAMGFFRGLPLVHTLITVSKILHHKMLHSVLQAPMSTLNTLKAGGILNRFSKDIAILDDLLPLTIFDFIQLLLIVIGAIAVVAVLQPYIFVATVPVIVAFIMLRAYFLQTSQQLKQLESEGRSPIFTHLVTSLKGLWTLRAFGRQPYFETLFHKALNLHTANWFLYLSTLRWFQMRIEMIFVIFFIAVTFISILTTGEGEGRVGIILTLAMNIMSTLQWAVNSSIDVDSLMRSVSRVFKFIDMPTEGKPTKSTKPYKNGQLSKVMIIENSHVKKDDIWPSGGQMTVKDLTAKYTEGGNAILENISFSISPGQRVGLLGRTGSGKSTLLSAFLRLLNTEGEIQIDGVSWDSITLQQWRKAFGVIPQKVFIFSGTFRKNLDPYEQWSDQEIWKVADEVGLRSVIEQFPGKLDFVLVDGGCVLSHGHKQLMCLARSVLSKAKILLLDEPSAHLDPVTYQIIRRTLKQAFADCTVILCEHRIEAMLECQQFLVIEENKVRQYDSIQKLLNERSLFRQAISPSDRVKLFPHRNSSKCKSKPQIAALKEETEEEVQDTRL

[5] = biological target: CFTR peptide 1097-L, biotinylated (library form) (UniProt P13569); assay: ELISA; titration of increasing concentrations of chaperone on immobilised biotinylated peptide; HSC70 with ATP; apparent Kd from linearised binding curves

CFTR peptide 1092-S, sequence (P13569 whole entry, looked up, tested part not stated): as above
HSC70 (HSPA8), His-tagged (UniProt P11142), sequence (P11142 whole entry): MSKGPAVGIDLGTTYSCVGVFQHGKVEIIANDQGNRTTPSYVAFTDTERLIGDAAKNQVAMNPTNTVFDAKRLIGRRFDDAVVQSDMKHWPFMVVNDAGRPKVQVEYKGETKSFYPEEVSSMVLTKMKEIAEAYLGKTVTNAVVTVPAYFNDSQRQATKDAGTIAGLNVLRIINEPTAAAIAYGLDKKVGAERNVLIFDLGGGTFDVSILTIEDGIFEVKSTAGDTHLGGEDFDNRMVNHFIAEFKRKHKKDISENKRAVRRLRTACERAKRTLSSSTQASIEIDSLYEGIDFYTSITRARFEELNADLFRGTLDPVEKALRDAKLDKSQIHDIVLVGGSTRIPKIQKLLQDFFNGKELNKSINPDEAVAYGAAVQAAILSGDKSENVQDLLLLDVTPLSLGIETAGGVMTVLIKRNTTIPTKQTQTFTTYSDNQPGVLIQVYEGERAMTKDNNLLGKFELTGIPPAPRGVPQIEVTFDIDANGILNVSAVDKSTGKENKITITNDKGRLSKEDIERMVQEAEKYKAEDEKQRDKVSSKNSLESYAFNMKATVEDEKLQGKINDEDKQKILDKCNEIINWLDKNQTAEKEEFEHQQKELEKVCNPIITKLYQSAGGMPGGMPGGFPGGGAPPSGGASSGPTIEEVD
HSC70 (HSPA8), His-tagged (from UniProt P11142 1-646) (natural protein), sequence (P11142 whole entry): as above
DNAJA2 (DJA2), His-tagged (from UniProt O60884 1-412) (natural protein), sequence (O60884 whole entry): as the sequence (O60884 whole entry) above

Row | Substance | Kd [1] [nM] | Kd [2] [nM] | Kd [3] [nM] | Kd [4] [nM] | Kd [5] [nM]
1 | CFTR peptide 1097-L, soluble unmodified (from UniProt P13569 1090-1104) | 602 | 2430 | 585 |  | 
2 | DNAJA1 (DJA1), His-tagged (from UniProt P31689 1-397) (natural protein) |  |  |  | 3970 | 167
3 | HSC70 (HSPA8), His-tagged (from UniProt P11142 1-646) (natural protein) |  |  |  | 6170 | 58
4 | DNAJA2 (DJA2), His-tagged (from UniProt O60884 1-412) (natural protein) |  |  |  | 8460 | 75
5 | CFTR peptide 1092-S (from UniProt P13569 1088-1096) | 1260 | 5470 | 2620 |  | 
